Experiments:
Test in all cases: EMSA
[1] = molecular target: T1, PF1142 (Pyrococcus furiosus, UniProt Q8U1R3 1-280)
T1 sequence: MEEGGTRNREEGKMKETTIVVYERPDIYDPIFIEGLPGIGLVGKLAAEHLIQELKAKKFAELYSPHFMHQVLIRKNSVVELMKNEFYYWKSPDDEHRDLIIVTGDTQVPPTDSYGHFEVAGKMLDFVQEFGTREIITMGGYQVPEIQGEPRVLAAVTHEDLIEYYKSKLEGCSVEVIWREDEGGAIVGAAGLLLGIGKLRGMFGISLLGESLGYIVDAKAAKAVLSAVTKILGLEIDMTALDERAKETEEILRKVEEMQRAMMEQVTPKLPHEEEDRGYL

[2] = molecular target: T2, PF1913 (Pyrococcus furiosus, UniProt Q8TZS1 1-157)
T2 sequence: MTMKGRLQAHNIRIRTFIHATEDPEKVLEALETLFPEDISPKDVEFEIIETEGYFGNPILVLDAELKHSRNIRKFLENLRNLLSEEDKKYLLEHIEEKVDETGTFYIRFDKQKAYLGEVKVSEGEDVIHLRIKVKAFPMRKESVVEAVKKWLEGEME

[3] = molecular target: T3, PF0547 (Pyrococcus furiosus, UniProt Q8U3C3 1-448)
T3 sequence: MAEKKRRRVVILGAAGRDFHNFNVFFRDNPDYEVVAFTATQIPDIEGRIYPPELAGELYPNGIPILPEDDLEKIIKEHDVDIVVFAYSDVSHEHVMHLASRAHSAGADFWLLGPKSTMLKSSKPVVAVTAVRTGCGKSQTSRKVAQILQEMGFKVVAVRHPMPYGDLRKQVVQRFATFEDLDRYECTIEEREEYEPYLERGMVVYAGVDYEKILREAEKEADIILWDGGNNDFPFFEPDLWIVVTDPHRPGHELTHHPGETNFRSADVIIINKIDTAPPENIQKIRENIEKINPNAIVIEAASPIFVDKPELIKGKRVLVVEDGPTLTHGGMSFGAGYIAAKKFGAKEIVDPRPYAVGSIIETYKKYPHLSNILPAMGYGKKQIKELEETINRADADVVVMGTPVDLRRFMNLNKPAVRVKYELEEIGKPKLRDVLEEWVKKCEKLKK

[4] = molecular target: T4, PF1488 (Pyrococcus furiosus, UniProt Q8U0U4 1-222)
T4 sequence: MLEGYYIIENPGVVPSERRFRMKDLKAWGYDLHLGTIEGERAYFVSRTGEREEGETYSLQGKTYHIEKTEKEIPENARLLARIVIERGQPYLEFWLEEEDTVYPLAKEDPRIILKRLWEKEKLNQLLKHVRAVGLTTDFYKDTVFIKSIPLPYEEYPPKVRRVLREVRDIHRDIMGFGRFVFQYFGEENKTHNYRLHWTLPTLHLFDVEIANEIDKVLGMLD

Measured: binding result

B1: MPOR-27 (structured_RNA)
RNA: GAAACAAGGAGAAAUGGUUCGUGUCCU
no binding: all assays above

Source: publication PMC2779898
